Test results taken from paper doi:10.1101/2024.10.28.620641 (bioRxiv, 2024).

Target: the molecule itself
Experiment: cryo-EM structure

B1: Caulobacter crescentus Tad pilus ATPase CpaF (enzyme, Caulobacter crescentus NA1000, UniProt Q9L714 1-501, looked up)
chain: MFGKRDSSASGDPKAPPPAPAGGATIATRPQRVEPVAAPEPKAPAPKVSGPAPKPTVGLEQLRAAQGQPQTANIVREQSDYYHATKTTIFNALLNTIDLSQLAQLDLKQAGEEIRDIVAELVAIKNVSMSVAEQEHLVQDIINDVLGYGPLEPLLARDDIADIMVNGAHRVFIEVGGKVQLTNVRFRDNLQLMNICQRIVSQVGRRVDESSPICDARLPDGSRVNVIAPPLALDGPTLTIRKFKKDKLTMKNLVEFASISPEGARVLGVIGACRCNLVISGGTGSGKTTLLNTMTAFIDPTERVVTCEDAAELQLQQPHVVRLETRPPNLEGSGAVTMRDLVKNCLRMRPERIIVGEVRGPEAFDLLQAMNTGHDGSMGTLHANSPREAISRIESMITMGGYGLPSKTIKEMIVGSVDVIIQAARLRDGSRRITHITEVVGLEGDVIVTQDLFVYEITGEDEHGKVVGKHRSTGIARPRFWDRARYYGLERELAEALDAAE
  stoichiometry N: 6
